Molecular target: T1, LL-37 (Homo sapiens, UniProt P49913)
T1 chain: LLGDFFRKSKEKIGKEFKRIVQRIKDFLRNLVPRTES
Assay: tryptophan fluorescence

Kd: 1.22 nM
B1: rfhSP-A trimeric recombinant fragment (protein)
chain: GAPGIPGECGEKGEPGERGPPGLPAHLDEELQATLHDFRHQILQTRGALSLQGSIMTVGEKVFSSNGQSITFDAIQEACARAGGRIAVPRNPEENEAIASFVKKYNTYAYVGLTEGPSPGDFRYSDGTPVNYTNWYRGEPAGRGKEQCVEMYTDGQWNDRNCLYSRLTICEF

Source: paper PMC9464622 (2022)
